The record followed here is US20090136526A1 (Seagen, published 2009).

Assay [1] concerns the target T1, CD19 on CD19-positive tumor cell lines (human, UniProt P15391 20-556).
T1 sequence (looked up): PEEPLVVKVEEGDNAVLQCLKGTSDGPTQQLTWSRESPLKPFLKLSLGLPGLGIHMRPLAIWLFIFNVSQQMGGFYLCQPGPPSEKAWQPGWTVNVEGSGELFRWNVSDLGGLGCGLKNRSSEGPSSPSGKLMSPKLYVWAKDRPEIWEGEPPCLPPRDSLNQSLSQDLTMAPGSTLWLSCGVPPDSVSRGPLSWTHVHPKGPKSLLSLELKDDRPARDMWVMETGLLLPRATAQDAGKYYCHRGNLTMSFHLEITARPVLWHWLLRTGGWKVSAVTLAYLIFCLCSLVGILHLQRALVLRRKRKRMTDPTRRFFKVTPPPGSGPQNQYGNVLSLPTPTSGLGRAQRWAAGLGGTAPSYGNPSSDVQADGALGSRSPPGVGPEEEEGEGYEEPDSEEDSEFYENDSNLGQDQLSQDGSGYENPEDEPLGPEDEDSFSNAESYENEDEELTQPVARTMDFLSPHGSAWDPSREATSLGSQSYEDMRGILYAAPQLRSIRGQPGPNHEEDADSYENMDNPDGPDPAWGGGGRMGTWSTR
In words: cell-based or functional assay.

The target in assay [2] is CD19 on CD19-positive tumor cell lines (human) (UniProt P15391). The assay is described as follows: cell-based or functional assay.

In assay [1], B-C3 (antibody) registered an IC50 (ng/mL) of anti-CD19 antibody linked with 2°-ADC, cell viability (resazurin, 96 h), CA46 cells of 17 ng/mL; an IC50 (ng/mL) of anti-CD19 antibody linked with 2°-ADC, cell viability (resazurin, 96 h), HS Sultan cells of 234 ng/mL; an IC50 (ng/mL) of anti-CD19 antibody linked with 2°-ADC, cell viability (resazurin, 96 h), MC 116 cells of 195 ng/mL; an IC50 (ng/mL) of anti-CD19 antibody linked with 2°-ADC, cell viability (resazurin, 96 h), Ramos cells of 13 ng/mL. The molecule further displayed an IC50 (ng/mL) of anti-CD19 antibody linked with 2°-ADC, cell viability (resazurin, 96 h), Toledo cells in assay [1] of 359 ng/mL.
For the molecule HIB19 (antibody), in assay [1], the IC50 (ng/mL) of anti-CD19 antibody linked with 2°-ADC, cell viability (resazurin, 96 h), CA46 cells worked out at 1 ng/mL; the IC50 (ng/mL) of anti-CD19 antibody linked with 2°-ADC, cell viability (resazurin, 96 h), HS Sultan cells was 97 ng/mL; the IC50 (ng/mL) of anti-CD19 antibody linked with 2°-ADC, cell viability (resazurin, 96 h), HT cells was found to be 1000 ng/mL; the IC50 (ng/mL) of anti-CD19 antibody linked with 2°-ADC, cell viability (resazurin, 96 h), MC 116 cells amounted to 188 ng/mL. In assay [1], this molecule displayed an IC50 (ng/mL) of anti-CD19 antibody linked with 2°-ADC, cell viability (resazurin, 96 h), Ramos cells of 1 ng/mL and an IC50 (ng/mL) of anti-CD19 antibody linked with 2°-ADC, cell viability (resazurin, 96 h), Toledo cells of 1000 ng/mL.
For the molecule LT19 (antibody), in assay [1], the IC50 (ng/mL) of anti-CD19 antibody linked with 2°-ADC, cell viability (resazurin, 96 h), CA46 cells worked out at 4 ng/mL; the IC50 (ng/mL) of anti-CD19 antibody linked with 2°-ADC, cell viability (resazurin, 96 h), HS Sultan cells was 112 ng/mL; the IC50 (ng/mL) of anti-CD19 antibody linked with 2°-ADC, cell viability (resazurin, 96 h), HT cells worked out at 111 ng/mL; the IC50 (ng/mL) of anti-CD19 antibody linked with 2°-ADC, cell viability (resazurin, 96 h), MC 116 cells was found to be 192 ng/mL. In addition, in assay [1], the IC50 (ng/mL) of anti-CD19 antibody linked with 2°-ADC, cell viability (resazurin, 96 h), Ramos cells worked out at 1 ng/mL and the IC50 (ng/mL) of anti-CD19 antibody linked with 2°-ADC, cell viability (resazurin, 96 h), Toledo cells came to 584 ng/mL.
Molecule hBU12 (antibody) had an internalization kinetics by FACS, CD21 low Ramos cells in assay [1] of 50%.
Still for that read-out and setting: with hBU12-vcMMAE (antibody) the figure was 50%.

B1: SJ25-C1 (antibody, from another filing, V domains shown)
VH: EVKLQQSGAELVRPGSSVKISCKASGYAFSSYWMNWVKQRPGQGLEWIGQIYPGDGDTNYNGKFKGQATLTADKSSSTAYMQLSGLTSEDSAVYFCARKTISSVVDFYFDYWGQGTTVTVSS
VL: DIELTQSPKFMSTSVGDRVSVTCKASQNVGTNVAWYQQKPGQSPKPLIYSATYRNSGVPDRFTGSGSGTDFTLTITNVQSKDLADYFCQQYNRYPYTSGGGTKLEI
Regarding B1, in assay [2], the IC50 (ng/mL) of anti-CD19 antibody linked with 2°-ADC, cell viability (resazurin, 96 h), CA46 cells was 4 ng/mL; the IC50 (ng/mL) of anti-CD19 antibody linked with 2°-ADC, cell viability (resazurin, 96 h), HS Sultan cells amounted to 150 ng/mL; the IC50 (ng/mL) of anti-CD19 antibody linked with 2°-ADC, cell viability (resazurin, 96 h), MC 116 cells amounted to 200 ng/mL; the IC50 (ng/mL) of anti-CD19 antibody linked with 2°-ADC, cell viability (resazurin, 96 h), Ramos cells turned out to be 3 ng/mL. In assay [2], this molecule registered an IC50 (ng/mL) of anti-CD19 antibody linked with 2°-ADC, cell viability (resazurin, 96 h), Toledo cells of 512 ng/mL.

B2: cBU12 (antibody, V domains shown)
VH: QVTLKESGPGILQPSQTLSLTCSFSGFSLSTSGMGVGWIRQPSGKGLEWLAHIWWDDDKRYNPALKSRLTISKDTSSNQVFLKIASVDTADTAAYYCARMELWSYYFDYWGQGTTLTVSS
VL: ENVLTQSPAIMSASPGEKVTMTCSASSSVSYMHWYQQKSSTSPKLWIYDTSKLASGVPGRFSGSGSGNSHFLTISSMEAEDVATYYCFQGSVYPFTFGSGTKLEIKR
Take B2: in assay [1], the “IC50 (ng/mL) of anti-CD19 antibody linked with 2°-ADC, cell viability (resazurin, 96 h), CA46 cells” value worked out at 7 ng/mL; the “IC50 (ng/mL) of anti-CD19 antibody linked with 2°-ADC, cell viability (resazurin, 96 h), HS Sultan cells” value came to 100 ng/mL; the “IC50 (ng/mL) of anti-CD19 antibody linked with 2°-ADC, cell viability (resazurin, 96 h), HT cells” value was determined as 238 ng/mL; the “IC50 (ng/mL) of anti-CD19 antibody linked with 2°-ADC, cell viability (resazurin, 96 h), MC 116 cells” value was 186 ng/mL. In assay [1], the “IC50 (ng/mL) of anti-CD19 antibody linked with 2°-ADC, cell viability (resazurin, 96 h), Ramos cells” value is 5 ng/mL and the “IC50 (ng/mL) of anti-CD19 antibody linked with 2°-ADC, cell viability (resazurin, 96 h), Toledo cells” value is roughly 1000 ng/mL.
